Where two headings read alike, the source gives them in different places. Blank lines part the entries; values can stand above or below the binder they belong to.
Legend:
[1] = target: T1, cynomolgus monkey CD3 on the surface of expanded monkey T cells (cynomolgus monkey, UniProt Q95LI5 22-198; Q95LI8 22-171; Q95LI7 23-181); experiment: FACS, expanded monkey T cells
T1 construct: whole, on cells; Endogenous CD3 within the TCR-CD3 complex on T cells expanded from cynomolgus monkey PBMC

[2] = target: T2, human CD3 on the cell surface (Jurkat cells, expanded human T cells, Jurkat-Lucia NFAT cells, human PBMC) (human, UniProt P07766 23-207; P04234 22-171; P09693 23-182); experiment: FACS, Jurkat cells
T2 construct: whole, on cells; Endogenous CD3 within the TCR-CD3 complex on cells (also zeta chains and TCR); the cell type is named under assay
T2 sequence (P07766 23-207, chain 1 of 3): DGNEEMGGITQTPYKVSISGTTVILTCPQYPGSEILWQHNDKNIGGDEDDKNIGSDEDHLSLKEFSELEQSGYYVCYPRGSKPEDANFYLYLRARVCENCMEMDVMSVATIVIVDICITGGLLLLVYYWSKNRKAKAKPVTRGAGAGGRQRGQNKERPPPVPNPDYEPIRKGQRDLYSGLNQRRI
T2 sequence (P04234 22-171, chain 2 of 3): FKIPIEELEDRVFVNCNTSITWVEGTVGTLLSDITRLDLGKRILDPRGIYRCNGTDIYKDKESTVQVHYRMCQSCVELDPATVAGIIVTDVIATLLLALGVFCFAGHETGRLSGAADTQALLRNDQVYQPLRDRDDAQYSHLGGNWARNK
T2 sequence (P09693 23-182, chain 3 of 3): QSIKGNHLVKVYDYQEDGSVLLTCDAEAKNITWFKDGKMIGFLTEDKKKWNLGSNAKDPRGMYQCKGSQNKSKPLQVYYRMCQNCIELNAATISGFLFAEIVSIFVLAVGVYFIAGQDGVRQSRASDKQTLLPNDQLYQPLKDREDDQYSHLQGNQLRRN
Procedure: (§1) The binding of the chimeric antibodies to CD3 on the cell surface was analyzed by detecting the binding of the antibodies to Jurkat cells and human T cells. Suspension cells Jurkat cells were scale-up cultured in T-75 cell culture flasks to the logarithmic growth phase, the supernatant of the medium was discarded by centrifugation, and the cell pellet was washed 2 times with PBS for later use. The expanded human T cells were washed 2 times with PBS for later use. After counting the cells in the previous step, the cell pellet was resuspended with [PBS+2% (w/w) BSA] blocking solution to 4×10⁶ cells/ml, and added to a 96-well FACS reaction plate at 50 μl/well, and then the chimeric antibody to be tested was added at 50 μl/well, and incubated at 4° C. for 1 h. The cells were centrifuged and washed 3 times with a PBS buffer. […] The cells were centrifuged and washed 5 times with PBS, and FACS (FACS Canto™, purchased from BD Company) was used for detection and result analysis. Data analysis was performed by software (CellQuest) to obtain the mean fluorescence […] (MFI) of the cells. And then software (GraphPad Prism8) was used for analysis, data fitting, and EC50 value calculation. The same method was used to simultaneously detect the binding of the chimeric antibodies to endogenous CD3 negative cells MOLT4 cells.

[3] = target: T2, human CD3 on the cell surface (Jurkat …); experiment: FACS, Jurkat cells; remark: listed apart in the source
Procedure: as §1

[4] = target: T3, human CD3ε/δ-His (human, UniProt P07766 23-126; P04234 22-105); experiment: ELISA, coated antigen
T3 construct: Bought recombinant heterodimer with His tag; also called human CD3ε/δ protein
T3 sequence (P07766 23-126, stated change not applied, form in doubt, chain 1 of 2): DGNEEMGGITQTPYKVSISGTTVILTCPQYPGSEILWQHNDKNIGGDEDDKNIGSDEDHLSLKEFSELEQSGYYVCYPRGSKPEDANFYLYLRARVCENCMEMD
T3 sequence (P04234 22-105, stated change not applied, form in doubt, chain 2 of 2): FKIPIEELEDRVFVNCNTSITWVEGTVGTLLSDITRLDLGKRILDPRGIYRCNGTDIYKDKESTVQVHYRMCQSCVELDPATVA
Procedure: (§2) To detect the binding activity of the humanized antibodies to CD3 protein, CD3 protein was diluted with PBS to the final concentration of […], then added to a 96-well ELISA plate at 50 μL/well, and the plate was sealed with a plastic film, and incubated overnight at 4° C. On the next day, the plate was washed 2 times with PBS, and a blocking solution [PBS+2% (v/v) BSA] was added for blocking at room temperature for 2 h. The blocking solution was poured off, and the antibody (initial concentration of 100 nM, and gradient dilution at 1:10) or a negative control antibody was added at 50 µl/well. After incubation at 37° C. for 2 h, the plate was washed 3 times with PBS. […] TMB substrate was added at 50 μl/well, and incubated at room temperature for 10 min, and then a stop solution (1.0 N HCl) was added at 50 μl/well. The OD450 nm values were read by an ELISA microplate reader (Multimode Plate Reader, EnSight, purchased from Perkin Elmer).

[5] = target: T4, recombinant human CD3ε-ECD His protein (human, UniProt P07766 23-126); experiment: ELISA, coated antigen
T4 construct: extracellular domain; also called human CD3ε-His; CD3ε antigen protein; not shown: His tag
T4 sequence (P07766 23-126): as the sequence (P07766 23-126, stated change not applied, form in doubt, chain 1 of 2) above
Procedure: as §2

[6] = target: T2, human CD3 on the cell surface (Jurkat …); experiment: cell-based or functional assay
[7] = target: T3, human CD3ε/δ-His; experiment: ELISA, coated antigen; remark: listed apart in the source
Procedure: as §2

[8] = target: T4, recombinant human CD3ε-ECD His protein; experiment: ELISA, coated antigen; remark: listed apart in the source
Procedure: as §2

[9] = target: T2, human CD3 on the cell surface (Jurkat …); experiment: FACS, expanded human T cells
Procedure: as §1

[10] = target: T2, human CD3 on the cell surface (Jurkat …); experiment: cell-based or functional assay; remark: listed apart in the source
[11] = target: T2, human CD3 on the cell surface (Jurkat …); experiment: FACS, expanded human T cells; remark: listed apart in the source
Procedure: as §1

[12] = target: T3, human CD3ε/δ-His; experiment: ELISA, coated antigen; remark: listed apart in the source
Procedure: as §2

[13] = target: T4, recombinant human CD3ε-ECD His protein; experiment: ELISA, coated antigen; remark: listed apart in the source
Procedure: as §2

[14] = target: T2, human CD3 on the cell surface (Jurkat …); experiment: cell-based or functional assay; remark: listed apart in the source
[15] = target: T2, human CD3 on the cell surface (Jurkat …); experiment: FACS, expanded human T cells; remark: listed apart in the source

T1 sequence (Q95LI5 22-198, chain 1 of 3): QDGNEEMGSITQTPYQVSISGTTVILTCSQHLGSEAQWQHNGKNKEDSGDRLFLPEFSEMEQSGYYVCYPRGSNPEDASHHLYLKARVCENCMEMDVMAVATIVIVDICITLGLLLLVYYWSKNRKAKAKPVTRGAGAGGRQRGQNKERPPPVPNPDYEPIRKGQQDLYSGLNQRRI
T1 sequence (Q95LI8 22-171, chain 2 of 3): as the sequence (P04234 22-171, chain 2 of 3) above, with I5V, N15K, I20V, S32T, D33N, I34N, T64A, S74N, V83L, H141R counted along it
T1 sequence (Q95LI7 23-181, chain 3 of 3): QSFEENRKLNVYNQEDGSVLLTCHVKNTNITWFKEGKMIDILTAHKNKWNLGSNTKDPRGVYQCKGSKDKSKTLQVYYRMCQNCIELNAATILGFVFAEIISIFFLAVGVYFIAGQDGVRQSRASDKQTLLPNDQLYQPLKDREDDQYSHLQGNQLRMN

EC50 [1]: 0.89 nM
max_MFI [1]: 24100 MFI
EC50 [2]: 0.1 nM
MFI_Max [2]: 29500 MFI
EC50 [3]: 0.47 nM
MFI_Max [3]: 11300 MFI
EC50 [4]: 0.36 nM
max-OD450 [4]: 2.83 OD450
EC50 [5]: 0.118 nM
max-OD450 [5]: 3.09 OD450
EC50 (nM), luciferase reporter, Jurkat-Lucia NFAT cells [6]: 5.04 nM
Maximum response value (RLU) [6]: 14300 RLU
EC50 [7]: 0.36 nM
max-OD450 [7]: 2.83 OD450
EC50 [8]: 0.22 nM
max-OD450 [8]: 2.59 OD450
EC50 [9]: 0.46 nM
MFI_Max [9]: 40900 MFI
EC50 (nM), luciferase reporter, Jurkat-Lucia NFAT cells [10]: 5.97 nM
Maximum response value (RLU) [10]: 46900 RLU
EC50 [11]: 0.66 nM
MFI_Max [11]: 15400 MFI
EC50 [12]: 0.36 nM
max-OD450 [12]: 2.83 OD450
EC50 [13]: 0.22 nM
max-OD450 [13]: 1.49 OD450
EC50 (nM), luciferase reporter, Jurkat-Lucia NFAT cells [14]: 22.5 nM
Maximum response value (RLU) [14]: 25400 RLU
EC50 [15]: 2.09 nM
max_MFI [15]: 33500 MFI
B1: 40G5c-hIgG1 (antibody, V domains shown)
VH: EVQLVQSGAEVKKPGASVKVSCKASGYTFTNYYIHWVRQAPGQGLEWIGWIYPGDGNTKYNEKFKGRATLTADTSTSTAYLELSSLRSEDTAVYYCARDSYSNYYFDYWGQGTLVTVSS
VL: DIVMTQSPDSLAVSLGERATINCKSSQSLLNSRTRKNYLAWYQQKPGQPPKLLIYWASTRESGVPDRFSGSGSGTDFTLTISSLQAEDVAVYYCTQSFILRTFGQGTKVEIKR

max_MFI [1]: 72 MFI
EC50 [2]: 20.4 nM
MFI_Max [2]: 4860 MFI
EC50 [3]: 6.18 nM
MFI_Max [3]: 2080 MFI
max-OD450 [4]: 0.16 OD450
max-OD450 [5]: 0.1 OD450
EC50 (nM), luciferase reporter, Jurkat-Lucia NFAT cells [6]: 7.41 nM
Maximum response value (RLU) [6]: 6560 RLU
max-OD450 [7]: 0.16 OD450
max-OD450 [8]: 0.16 OD450
EC50 [9]: 7.56 nM
MFI_Max [9]: 8780 MFI
Maximum response value (RLU) [10]: 12000 RLU
EC50 [11]: 15.8 nM
MFI_Max [11]: 2360 MFI
max-OD450 [12]: 0.16 OD450
max-OD450 [13]: 0.05 OD450
Maximum response value (RLU) [14]: 8220 RLU
EC50 [15]: 7.03 nM
max_MFI [15]: 9270 MFI
B2: F2B-hIgG1 (antibody, V domains shown)
VH: EVQLVESGGGLVQPGRSLRLSCAASGFTFDDYAMHWVRQAPGKGLEWVSGISWNSGSIGYADSVKGRFTISRDNAKNSLYLQMNSLRAEDTALYYCAKDSRGYGDYRLGGAYWGQGTLVTVSS
VL: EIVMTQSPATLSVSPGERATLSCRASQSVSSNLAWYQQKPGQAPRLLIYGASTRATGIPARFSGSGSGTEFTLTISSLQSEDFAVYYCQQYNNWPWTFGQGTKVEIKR
notes: also called F2Bs
binding result [5]: no binding (tested: 100 nM (initial concentration))

— US20250136687A1 (SHANDONG SIMCERE BIOPHARMACEUTICAL, published 2025)
